Measurements as given in patent US20150197796, “SSB METHOD” (OXFORD NANOPORE TECHNOLOGIES LIMITED, published 2015).

Molecular target: EcoSSB-Q152del (C-terminal truncated SSB) (Escherichia coli, UniProt P0AGE0 SEQ:1-152)
Assay: EMSA; complex formation not impaired vs WT; 5% TBE gel
Conditions: tags: N-terminal His6-TEV site removed; chain copies: 4 inferred

B1: 70mer polyT (ssDNA)
DNA: TTTTTTTTTTTTTTTTTTTTTTTTTTTTTTTTTTTTTTTTTTTTTTTTTTTTTTTTTTTTTTTTTTTTTT
binding result: binds
